The values below come from PMC3817407.

Where “and” joins values, the source holds several entries; their conditions need not be identical. Identical values can stand only once.

Assay [1] has as its target T1, ECF02_915.
T1 chain: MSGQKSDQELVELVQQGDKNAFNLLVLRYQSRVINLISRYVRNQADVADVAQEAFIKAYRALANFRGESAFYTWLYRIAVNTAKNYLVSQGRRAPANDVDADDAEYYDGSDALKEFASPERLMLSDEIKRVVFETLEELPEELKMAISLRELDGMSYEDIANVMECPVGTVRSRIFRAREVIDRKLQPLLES

Assay [2] deals with T2, ECF35_3582.
T2 chain: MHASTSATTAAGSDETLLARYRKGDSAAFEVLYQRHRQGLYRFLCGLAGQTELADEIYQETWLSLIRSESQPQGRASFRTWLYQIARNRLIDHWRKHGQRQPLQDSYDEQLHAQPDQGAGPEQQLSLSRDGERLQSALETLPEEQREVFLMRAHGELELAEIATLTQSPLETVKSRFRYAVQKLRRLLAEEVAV

Assay [3] concerns the target T3, ECF28_1088.
T3 chain: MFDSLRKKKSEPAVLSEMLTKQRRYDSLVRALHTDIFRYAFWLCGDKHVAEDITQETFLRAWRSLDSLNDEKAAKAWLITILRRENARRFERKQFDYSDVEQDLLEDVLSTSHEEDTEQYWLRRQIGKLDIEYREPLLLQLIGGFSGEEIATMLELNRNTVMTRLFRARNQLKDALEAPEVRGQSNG

The target in assay [4] is T4, ECF03_1244.
T4 chain: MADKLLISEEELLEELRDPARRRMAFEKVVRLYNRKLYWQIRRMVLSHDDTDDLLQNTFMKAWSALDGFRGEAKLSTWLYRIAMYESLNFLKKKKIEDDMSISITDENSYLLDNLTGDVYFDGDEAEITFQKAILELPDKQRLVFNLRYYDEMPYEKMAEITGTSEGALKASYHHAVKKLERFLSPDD

The target in assay [5] is ECF26_4464.
The target of assay [6] is T5, ECF20_992.
T5 chain: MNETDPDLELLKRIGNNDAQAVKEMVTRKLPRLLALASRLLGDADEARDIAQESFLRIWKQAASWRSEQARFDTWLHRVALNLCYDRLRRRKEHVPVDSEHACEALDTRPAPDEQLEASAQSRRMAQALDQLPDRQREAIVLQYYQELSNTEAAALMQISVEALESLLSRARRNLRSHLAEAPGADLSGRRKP

The target in assay [7] is T6, ECF28_1040.
T6 chain: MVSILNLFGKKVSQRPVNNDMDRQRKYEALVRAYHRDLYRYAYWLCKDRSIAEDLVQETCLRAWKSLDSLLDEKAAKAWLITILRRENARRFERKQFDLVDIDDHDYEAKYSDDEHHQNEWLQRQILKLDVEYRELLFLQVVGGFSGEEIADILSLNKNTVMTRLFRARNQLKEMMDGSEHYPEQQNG

Assay [8] addresses T7, ECF38_1322.
T7 chain: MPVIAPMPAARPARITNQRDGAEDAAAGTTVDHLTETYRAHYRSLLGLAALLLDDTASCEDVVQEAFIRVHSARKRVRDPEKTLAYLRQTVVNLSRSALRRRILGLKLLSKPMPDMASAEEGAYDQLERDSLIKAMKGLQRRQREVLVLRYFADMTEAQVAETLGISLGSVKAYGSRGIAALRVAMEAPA

Assay [9] addresses T8, ECF25_1645.
T8 chain: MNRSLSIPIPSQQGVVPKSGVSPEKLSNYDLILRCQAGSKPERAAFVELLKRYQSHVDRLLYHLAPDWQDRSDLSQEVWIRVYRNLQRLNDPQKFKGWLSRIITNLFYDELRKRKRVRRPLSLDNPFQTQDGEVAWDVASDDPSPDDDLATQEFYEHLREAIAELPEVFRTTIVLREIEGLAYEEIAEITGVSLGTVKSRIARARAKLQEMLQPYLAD

The target in assay [10] is T9, ECF03_1198.
T9 chain: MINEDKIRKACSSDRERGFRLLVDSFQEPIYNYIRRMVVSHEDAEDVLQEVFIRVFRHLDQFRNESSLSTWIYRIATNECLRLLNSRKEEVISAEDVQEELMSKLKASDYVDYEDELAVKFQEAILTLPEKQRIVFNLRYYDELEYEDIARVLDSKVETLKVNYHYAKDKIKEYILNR

In assay [11] the target is T10, ECF22_1147.
T10 chain: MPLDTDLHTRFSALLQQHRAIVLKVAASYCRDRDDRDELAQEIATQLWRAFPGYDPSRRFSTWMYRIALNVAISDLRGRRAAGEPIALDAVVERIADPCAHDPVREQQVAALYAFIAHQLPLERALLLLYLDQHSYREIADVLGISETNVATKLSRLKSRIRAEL

Assay [12] deals with T11, ECF37_2513.
T11 chain: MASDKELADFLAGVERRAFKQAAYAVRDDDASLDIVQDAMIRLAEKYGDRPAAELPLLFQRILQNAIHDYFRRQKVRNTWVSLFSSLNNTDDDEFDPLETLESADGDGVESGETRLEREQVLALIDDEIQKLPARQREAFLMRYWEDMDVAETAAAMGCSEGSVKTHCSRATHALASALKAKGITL

Assay [13] deals with T12, ECF15_524.
T12 chain: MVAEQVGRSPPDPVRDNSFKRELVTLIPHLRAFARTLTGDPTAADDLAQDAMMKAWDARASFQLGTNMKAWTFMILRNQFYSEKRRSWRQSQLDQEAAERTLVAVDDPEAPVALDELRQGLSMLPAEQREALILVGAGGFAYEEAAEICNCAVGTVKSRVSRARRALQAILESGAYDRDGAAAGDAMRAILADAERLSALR

Assay [14] addresses T13, ECF25_1643.
T13 chain: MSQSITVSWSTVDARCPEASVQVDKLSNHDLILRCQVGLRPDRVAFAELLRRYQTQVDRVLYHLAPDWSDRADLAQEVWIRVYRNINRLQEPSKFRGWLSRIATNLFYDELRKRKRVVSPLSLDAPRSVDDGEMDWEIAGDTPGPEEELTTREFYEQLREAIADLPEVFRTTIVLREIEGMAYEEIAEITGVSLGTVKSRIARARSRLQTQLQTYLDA

In assay [15] the target is T14, ECF01_3473.
T14 chain: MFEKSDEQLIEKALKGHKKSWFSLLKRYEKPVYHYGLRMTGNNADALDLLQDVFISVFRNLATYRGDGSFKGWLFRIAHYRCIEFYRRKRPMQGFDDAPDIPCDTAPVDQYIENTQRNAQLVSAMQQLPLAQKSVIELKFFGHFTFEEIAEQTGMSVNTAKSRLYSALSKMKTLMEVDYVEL

B1: AS01_3473 (protein)
chain: MSNYDNAELLALWLEGKLTPKQRDEFEQRCIQDSQFAEQVDAAAMVKIGADDYSSSEVPQWNKAATFEPQQANNSGSWLSGVSLVTSALAIVLVLTGTQVTTSEGELRIRFGSGQSEQALVKLVDSKLDAFKQNQQDAFTLYAQTLQQQQSESASQLTNYLLSSSRKERREDFAELIKFVNQQRSDDQLFYARQLNQLQQDVYHDATGVALESIQQ
B1: the fold repression was found to be 2.34 in assay [1]; 1.49 in assay [2]; 1.59 in [3]; 1.39 in assay [4]; 2.22 in assay [5]; 2.52 in assay [6]. For the same molecule, the fold repression in [7] was 2.3; in [8], 1.27; in [9], 0.81; in assay [10] it was 1.5; in [11], 3.4; in [12], 1.38. In addition, the fold repression in assay [13] is 1.61; in assay [14] it was 1.37 and 1.13; in [15], 13.

B2: AS04_1609 (protein)
chain: MNRTTEQRNAEVMKTIGLLDQMPRVEVDHLFRVRLMQRIEAMEVKKTSWSALPGGAFNPRLAFMALLLMLNIASALMLFMHGTPQATGSSGAIAESLTEDYGGPALSYYDDQTTIDR
As for B2, the fold repression amounted to 2.99 in assay [1]; 3.24 in [2]; 0.742 in assay [3]; 4.39 in assay [4]; 6.23 in assay [5]; 7.41 in assay [6]. Also, the fold repression in assay [7] was found to be 1.03; in [8], 3.12; in assay [9] it was 1.06; in [10], 6.14; in [11], 5.37; in assay [12], 2.72. Further, the fold repression in [13] was 2.88; in assay [14], 1.05 and 1.18; in [15], 4.75.

B3: AS03_1198 (protein)
chain: MDKDFDFDNIGKRTPYRTPDNFFEETQRKILERTVDEQRKKRRLKRIIPTVIAVAAVLAGILFTPSLRYMNTDTPSASNILAVDKNNVTTDPVDKWIKELSDEELEELVSFSENDIFLN
Take B3: the fold repression in assay [1] amounted to 2.43; in assay [2], 1.05; in [3] it was 1.24; in assay [4], 1.36; in [5], 1.48; in [6], 0.888. Moreover, the fold repression in [7] stood at 1.23; in assay [8] it was 1.07; in [9] it was 0.816; in assay [10], 45.8; in assay [11] it was 1.28; in assay [12] it was 1.07. In addition, the fold repression was 1.49 in assay [13]; 0.95 and 0.944 in assay [14]; 2.38 in assay [15].

B4: AS11_987 (protein)
chain: MNKHPDNNLLEAYASGSIDAVSGLVVATHLETCSKCRAYVNQVEASQANTVSESPSEYSPEFDDMLNDIINAEPVNDNVVIQDTAFVNVAGKSFELPKTLVRFSDLVGSWRSYGGKVFSAQIDLGEDARVSLMYIGENVQIPQHTHRGLESTLVLHGGFSDEDGQYEEGDLMVRDASVKHSPFTQEGEDCLCLTVLTEPMIFTQGVARIFNLFGKGLYP
For the molecule B4, the fold repression in assay [1] came out at 3.1; in [2], 1.71; in assay [3], 1.97; in assay [4], 2.2; in assay [5] it was 2.97; in [6] it was 3.26. In addition, the fold repression was 2.02 in assay [7]; 2.08 in assay [8]; 2.46 in [9]; 2.32 in assay [10]; 2.64 in assay [11]; 1.66 in assay [12]. Also, the fold repression in assay [13] is 3.35; in [14], 2.1 and 1.71; in [15] it was 4.16.

B5: AS03_1244 (protein)
chain: MKQFDPDVNIRPKEDSIRHYSVPDDYFASFTDKLMAQIPAVKEENTVVVPSVALWPKLRPLLYLAASFLLMIGMFKAFSLFGVGSDTGRTTSTSAGLVALDHGDTRWSEDTDYRDFLHDNCAETVSDEWVLTDFSE
Regarding B5, the fold repression came out at 2 in [1]; 1.37 in assay [2]; 1.36 in assay [3]; 60.8 in [4]; 2.21 in assay [5]; 1.93 in assay [6]. The fold repression is 1.68 in [7]; 1.68 in assay [8]; 1.37 in [9]; 2.13 in [10]; 2.3 in assay [11]; 1.89 in assay [12]. The fold repression in assay [13] is 2.14; in [14], 1.23 and 1.24; in [15], 2.13.
